Data reported in PMC5424545 (Cell reports, 2017).

B1: Taf14 (natural protein, S. cerevisiae (endogenous in yeast), UniProt P35189 1-244, looked up)
chain: MVATVKRTIRIKTQQHILPEVPPVENFPVRQWSIEIVLLDDEGKEIPATIFDKVIYHLHPTFANPNRTFTDPPFRIEEQGWGGFPLDISVFLLEKAGERKIPHDLNFLQESYEVEHVIQIPLNKPLLTEELAKSGSTEETTANTGTIGKRRTTTNTTAEPKAKRAKTGSASTVKGSVDLEKLAFGLTKLNEDDLVGVVQMVTDNKTPEMNVTNNVEEGEFIIDLYSLPEGLLKSLWDYVKKNTE
B2: Snf6 (natural protein, S. cerevisiae (endogenous in yeast), UniProt P18888 1-332, looked up)
chain: MGVIKKKRSHHGKASRQQYYSGVQVGGVGSMGAINNNIPSLTSFAEENNYQYGYSGSSAGMNGRSLTYAQQQLNKQRQDFERVRLRPEQLSNIIHDESDTISFRSNLLKNFISSNDAFNMLSLTTVPCDRIEKSRLFSEKTIRYLMQKQHEMKTQAAELQEKPLTPLKYTKLIAAAEDGSRSTKDMIDAVFEQDSHLRYQPDGVVVHRDDPALVGKLRGDLREAPADYWTHAYRDVLAQYHEAKERIRQKEVTAGEAQDEASLQQQQQQDLQQQQQVVTTVASQSPHATATEKEPVPAVVDDPLENMFGDYSNEPFNTNFDDEFGDLDAVFF
B3: Swi3 (natural protein, S. cerevisiae (endogenous in yeast), UniProt P32591 1-825, looked up)
chain: MENTLGEGSTVNASVDVDQHGNDNNSDSNANAAVAGVANTDTAGEESQQQDESLKDEATVPNTRDAESEAITVTAKQQPTMQANKLDSQETPSTEESRAQNVFGQDNEDSDNLFGETESSVSNNEANTPSIPTNPVDNENNKPAIKEDSTIQDSNGDVKNMEDVKIQKEEEPENNTVIEGVKEESQPDENTKEMDEVEEDDEDDDQPMISPDNSIFGDTKSESKQLGNTSSVANTPSEIPDAHKAEQEDIIEKTESVDKKVDSGEERNEQEREIMNDHSKSANPKKTTITRVEPETFEIPQAHEIVIPSYSKWFNLEKIHSIEVQSLPEFFTNRIPSKTPEVYMRYRNFMVNSYRLNPNEYFSVTTARRNVSGDAAALFRLHKFLTKWGLINYQVDSKLLPKNIEPPLTSQYSTRHDAPRGLFPFESYKPSVQLPDMAKLKKMMNTSDSESTLYKYLKESKRKYDEITHPPSTTDDENGDKNDNGGKMNNEVSTSTSMTGDANLLEEGETSRPLKKVKILEQIDENWSKEDLQKLLKGIQEFGADWYKVAKNVGNKSPEQCILRFLQLPIEDKFLYGDGNGKGDNDNGLGPLKYAPHLPFSKSENPVLSTIAFLVGLVNPKTVQSMTQRAIQSAESIKSQKEEISDQKPIEHIKEGSEIAISSLGYRSHIFATNEERQMNFLTNELIRLQMEKLDAKLNHLKKLEKFMELERKTLERQQENLLIQRLNFNQNSSKIVNVLSKCLNLISDSNINNSSVAEKEEIRSQIDHFKSMLSKPETLSIGKNPFNKPNIETGENHNGQSISNENDVKPISIEAPQFYRYWSA
B4: Swp82 (natural protein, S. cerevisiae (endogenous in yeast), UniProt P43554 1-623, looked up)
chain: MLGEDEGNTVLEKGNNPSVKQGEVGAVFIVPKILIREHERVILKQILQILDQDELVQPPLDKFPYKKLELPKYIDELKTRDATNTSYKMIQLDAYGEKKVGSNGELFGGRHYLFNTFTFTAHMGVLLVLLQDVIKVLYQSNATHDEDEFIVQHDQILVMETSEEQTKFLAKNGVIPEESKGSFKYITARSAFVEFGASVIAGGQRIVDDYWESLAKKQNLSSHQRVFKLSTNLISKISLLRPSFQNNRISNANEISANTNNTCTISTSKFESQYPIVTEQPSAEIREAYIENFAKGEHISAIVPGQSISGTLELSAQFRVPRYHSKNSFQQALQMKAMDIPIGRHEELLAQYESQAPDGSASISLPNHIPSVNPSNKPIKRMLSSILDINVSSSKNKKSEENEMIKPMNKGQHKNNTSLNINGWKFESLPLKSAENSGKQQYYRGLPLYEKNTLLERLKQLTPNEIKELEHLHDAVFVNTGLQNVRKVRTKKWKKYWQYKAGIPIGLKRSQLDEFKNKYLKDVLAQTSVTTNFNEITNTDETITTKRVPNPNFLGNCNIKDFKPPYIYSHVNKVPQNVAGDKTAVKLDTEVKNTNANPVVATDPVAAKPDNLANFSNEVAMNN
B5: Snf5 (natural protein, S. cerevisiae (endogenous in yeast), UniProt P18480 1-905, looked up)
chain: MNNQPQGTNSVPNSIGNIFSNIGTPSFNMAQIPQQLYQSLTPQQLQMIQQRHQQLLRSRLQQQQQQQQQTSPPPQTHQSPPPPPQQSQPIANQSATSTPPPPPAPHNLHPQIGQVPLAPAPINLPPQIAQLPLATQQQVLNKLRQQAIAKNNPQVVNAITVAQQQVQRQIEQQKGQQTAQTQLEQQRQLLVQQQQQQQLRNQIQRQQQQQFRHHVQIQQQQQKQQQQQQQHQQQQQQQQQQQQQQQQQQQQQQQQQQQQQQQQQQQQQGQIPQSQQVPQVRSMSGQPPTNVQPTIGQLPQLPKLNLPKYQTIQYDPPETKLPYPTYWSDKKADTDTLLYEQIIQRDKINKYSLIRETNGYDPFSIYGFSNKEYISRLWHTLKYYQDLKNTRMKSITSTSQKIPSASIWGNGYSGYGNGITNTTTRVIPQVEVGNRKHYLEDKLKVYKQAMNETSEQLVPIRLEFDQDRDRFFLRDTLLWNKNDKLIKIEDFVDDMLRDYRFEDATREQHIDTICQSIQEQIQEFQGNPYIELNQDRLGGDDLRIRIKLDIVVGQNQLIDQFEWDISNSDNCPEEFAESMCQELELPGEFVTAIAHSIREQVHMYHKSLALLGYNFDGSAIEDDDIRSRMLPTITLDDVYRPAAESKIFTPNLLQISAAELERLDKDKDRDTRRKRRQGRSNRRGMLALSGTSASNTSMNGVHNTVAAGNASSLPPGEILLPDIADIPRTFRTPVPSTLMPGGVDVGPSVESYELRNTTTYKSRPDRPKPVSPPCYIIDHIPGHSLLLSIKLPGKVNTKEEFAAAPNDTSSGTNAMLPSPESLKTKLNSNIRAGVTIPSIPNPIANHTVTNSPNPTLQPVIPGGAASKSVPTPSLPIAPPVAPHDSEATLLTNSNNGSSNNNTQNT
B6: Swi1 (natural protein, S. cerevisiae (endogenous in yeast), UniProt P09547 1-1314, looked up)
chain: MDFFNLNNNNNNNNTTTTTTTTNNNNTNNNNTNNNNNPANNTNNNNSTGHSSNTNNNTNNNNTNTGASGVDDFQNFFDPKPFDQNLDSNNNNSNSNNNDNNNSNTVASSTNFTSPTAVVNNAAPANVTGGKAANFIQNQSPQFNSPYDSNNSNTNLNSLSPQAILAKNSIIDSSNLPLQAQQQLYGGNNNNNSTGIANDNVITPHFITNVQSISQNSSSSTPNTNSNSTPNANQQFLPFNNSASNNGNLTSNQLISNYAASNSMDRSSSASNEFVPNTSDNNNNSNNHNMRNNSNNKTSNNNNVTAVPAATPANTNNSTSNANTVFSERAAMFAALQQKQQQRFQALQQQQQQQQNQQQQNQQPQQQQQQQQNPKFLQSQRQQQQRSILQSLNPALQEKISTELNNKQYELFMKSLIENCKKRNMPLQSIPEIGNRKINLFYLYMLVQKFGGADQVTRTQQWSMVAQRLQISDYQQLESIYFRILLPYERHMISQEGIKETQAKRIFLQQFLQELLKKVQQQQQAAALANANNNINSASSAPTPAAPGASVPATAAPGTEAGIVPVSANTPKSLNSNININVNNNNIGQQQVKKPRKQRVKKKTKKELELERKEREDFQKRQQKLLEDQQRQQKLLLETKLRQQYEIELKKLPKVYKRSIVRNYKPLINRLKHYNGYDINYISKIGEKIDSNKPIFLFAPELGAINLHALSMSLQSKNLGEINTALNTLLVTSADSNLKISLVKYPELLDSLAILGMNLLSNLSQNVVPYHRNTSDYYYEDAGSNQYYVTQHDKMVDKIFEKVNNNATLTPNDSNDEKVTILVDSLTGNQLPTPTPTEMEPDLDTECFISMQSTSPAVKQWDLLPEPIRFLPNQFPLKIHRTPYLTSLKKIKDEIDDPFTKINTRGAEDPKVLINDQLSTISMILRNISFSDNNSRIMSRNFYLKRFISDLLWLVLIHPENFTCNRKILNFKKDLVIVLSNISHLLEIASSIDCLLILILVISFGQPKLNPMASSSSFGSESLTFNEFQLQWGKYQTFGVDILAKLFSLEKPNLNYFKSILLNKNTGNNLYDRNSNNNHKDKKLLRRLLNLYNDNNKNNNNRHNLLNDVVSFLFSAIPLQQVLSQSADPSLLIDQFSPVISQSLTSILVIVQKILPLSNEVFEISENNSDSNSNNNGNKDSSFNFNKNLPFVWLSSEENIGSGLLKLSEIILNINNSTSKNTLLQQQNYSKVLLPSINISCVQLIKCLVEKSICFENCLNNDPEILKKIASIPNLFPTDLEIFQLFTNPSVDIQIINQYQLLYNLKNDILTNLE

biological target: B5; test: cross-linking

Binding result, binds:
B1
B2
B3
B4

biological target: Snf2 with two FLAG tags at the C-terminus (S. cerevisiae (endogenous in yeast), UniProt P22082 1-1703); test: cross-linking
Sequence (P22082 whole entry): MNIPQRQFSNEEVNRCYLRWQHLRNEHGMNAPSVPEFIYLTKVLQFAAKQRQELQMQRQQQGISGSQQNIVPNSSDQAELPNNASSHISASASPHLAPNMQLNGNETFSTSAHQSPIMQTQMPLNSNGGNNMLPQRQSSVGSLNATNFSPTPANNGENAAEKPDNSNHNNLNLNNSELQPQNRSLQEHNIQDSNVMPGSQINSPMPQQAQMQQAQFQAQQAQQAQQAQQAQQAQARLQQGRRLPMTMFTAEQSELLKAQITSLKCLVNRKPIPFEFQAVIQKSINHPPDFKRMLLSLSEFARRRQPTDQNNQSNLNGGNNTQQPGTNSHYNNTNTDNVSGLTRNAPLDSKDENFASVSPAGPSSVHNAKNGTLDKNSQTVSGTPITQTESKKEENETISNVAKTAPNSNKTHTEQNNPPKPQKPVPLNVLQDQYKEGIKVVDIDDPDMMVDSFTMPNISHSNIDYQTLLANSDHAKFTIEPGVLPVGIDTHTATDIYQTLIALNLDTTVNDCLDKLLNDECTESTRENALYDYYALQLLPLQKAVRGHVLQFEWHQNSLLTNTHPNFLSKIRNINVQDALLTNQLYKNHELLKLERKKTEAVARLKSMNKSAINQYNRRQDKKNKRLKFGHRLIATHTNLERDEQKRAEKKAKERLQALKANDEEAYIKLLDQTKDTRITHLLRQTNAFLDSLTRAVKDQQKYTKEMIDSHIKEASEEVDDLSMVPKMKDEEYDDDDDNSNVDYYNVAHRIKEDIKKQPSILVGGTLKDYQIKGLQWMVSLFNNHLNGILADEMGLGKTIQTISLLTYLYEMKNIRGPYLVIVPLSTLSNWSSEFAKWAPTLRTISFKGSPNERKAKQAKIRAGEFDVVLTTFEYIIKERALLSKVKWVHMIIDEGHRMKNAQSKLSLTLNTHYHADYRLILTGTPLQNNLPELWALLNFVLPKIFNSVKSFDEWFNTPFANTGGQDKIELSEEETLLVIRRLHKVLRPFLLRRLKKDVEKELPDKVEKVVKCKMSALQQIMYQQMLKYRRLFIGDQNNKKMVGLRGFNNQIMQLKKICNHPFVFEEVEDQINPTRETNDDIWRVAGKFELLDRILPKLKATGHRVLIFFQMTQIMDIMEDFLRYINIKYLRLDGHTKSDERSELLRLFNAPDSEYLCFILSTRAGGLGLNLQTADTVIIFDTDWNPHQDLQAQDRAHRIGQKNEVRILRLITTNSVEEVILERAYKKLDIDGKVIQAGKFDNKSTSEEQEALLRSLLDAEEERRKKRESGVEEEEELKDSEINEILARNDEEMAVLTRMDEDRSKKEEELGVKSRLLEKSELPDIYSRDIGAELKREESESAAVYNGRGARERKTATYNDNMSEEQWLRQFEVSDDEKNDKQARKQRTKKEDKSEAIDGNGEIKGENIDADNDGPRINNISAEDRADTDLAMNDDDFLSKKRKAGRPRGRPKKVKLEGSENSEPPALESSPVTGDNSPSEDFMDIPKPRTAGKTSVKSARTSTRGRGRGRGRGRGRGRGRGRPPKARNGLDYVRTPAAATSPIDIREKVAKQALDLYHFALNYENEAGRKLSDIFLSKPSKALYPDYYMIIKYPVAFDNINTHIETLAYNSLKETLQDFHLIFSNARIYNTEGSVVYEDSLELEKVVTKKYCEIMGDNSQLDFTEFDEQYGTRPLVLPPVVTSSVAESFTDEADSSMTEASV

Binding result, binds:
B1
B3
B5
B6
B4

biological target: B6; test: cross-linking

Binding result, binds:
B5
